Experimental data from patent US20200399347A1, “IL-22BP COMPOSITIONS AND METHOD FOR THE TREATMENT OF DISEASE THEREWITH” (The Regents of the University of Michigan, priority 2017, published 2020).

Legend:
PD2560 = experiment: Cisplatin mediated cell death (cleaved caspase 3 immunoblot) with or without IL-22 pre-treatment; assay type: cell-based, murine
Method: Chemoresistance is a well-established phenomenon in PDAC and is often responsible for disease progression and death. […] Cells were then treated with varying doses of cisplatin and cell death assessed by immunoblot for cleaved caspase 3. Degree of DNA damage was determined by measurement of phosphorylated histone 2AX (pH2AX), a marker of DNA damage triggered by cisplatin (ref. 39; incorporated by reference in its entirety). […] The differences in cell death appeared to be mediated by changes in DNA damage (FIG. 6 Panel B).

IL-22 [1] = target: T1, IL-22 (Homo sapiens, UniProt Q9GZX6); experiment: Neutralization of human IL-22 by IL-22BP, read out as pSTAT3 activation in PDAC lines; assay type: cell-based; conditions: IL-22 100 ng/ml incubated 30 minutes with IL-22BP 0-1000 ng/ml, pSTAT3 at 15 minutes in PDAC lines
T1 sequence (Q9GZX6 34-179): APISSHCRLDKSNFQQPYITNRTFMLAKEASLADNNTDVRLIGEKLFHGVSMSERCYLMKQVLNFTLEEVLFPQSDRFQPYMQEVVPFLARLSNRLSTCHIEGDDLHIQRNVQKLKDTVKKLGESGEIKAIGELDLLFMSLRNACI
Method: (§1) IL-22BP is an important regulator of IL-22 signaling at the tissue level and functions by sequestering cytokine and blocking its ability to bind to its cognate receptor. Its high affinity for IL-22 and neutralizing ability make it an attractive target for pharmacologic disruption of IL-22 signaling. To determine its efficacy in vitro, a fixed concentration of human and mouse IL-22 (100 ng/ml) was incubated for 30 minutes with increasing concentrations of human or mouse IL-22BP (0-1000 ng/ml). The mixture was then placed onto human and murine PDAC lines and IL-22 signaling measured by pSTAT3 activation at 15 minutes. […] A fusion protein which binds hIL-22BP to murine albumin was constructed.

mouse IL-22 = target: T2, mouse IL-22 (Mus musculus, UniProt Q9JJY9); experiment: Neutralization of mouse IL-22 by IL-22BP, read out as pSTAT3 activation in PDAC lines; assay type: cell-based; conditions: IL-22 100 ng/ml incubated 30 minutes with IL-22BP 0-1000 ng/ml, pSTAT3 at 15 minutes in PDAC lines
T2 sequence (Q9JJY9 34-179): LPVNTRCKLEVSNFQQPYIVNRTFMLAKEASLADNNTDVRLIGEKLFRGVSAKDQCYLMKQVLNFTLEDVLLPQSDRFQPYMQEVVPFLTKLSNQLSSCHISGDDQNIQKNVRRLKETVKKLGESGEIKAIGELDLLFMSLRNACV
Method: as §1

IL-22 [2] = target: T1, IL-22; experiment: In vitro testing of fusion protein for sequestration and abrogation of STAT3 signaling; assay type: cell-based; conditions: IL-22 species not stated, FIG. 6 Panel E
Method: as §1

[3] = target: T3, IL-22BP-Alb fusion protein (human IL-22BP fused to murine albumin) (Homo sapiens; mouse, UniProt Q969J5 22-263); experiment: binding inferred from neutralisation of IL-22-induced pSTAT3 signaling in vitro
T3 construct: also called fusion protein of hIL-22BP and albumin; not shown: serum albumin, mouse, cloned from mouse liver
T3 sequence: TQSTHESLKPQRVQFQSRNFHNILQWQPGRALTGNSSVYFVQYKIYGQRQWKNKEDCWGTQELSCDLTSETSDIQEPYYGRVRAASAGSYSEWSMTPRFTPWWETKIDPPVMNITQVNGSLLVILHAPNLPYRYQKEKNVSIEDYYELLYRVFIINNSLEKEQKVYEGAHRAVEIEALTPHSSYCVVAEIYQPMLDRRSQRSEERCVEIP
Method: as §1

[4] = target: T4, human IL-22 binding protein (IL-22BP) (Homo sapiens, UniProt Q969J5 22-263); experiment: binding inferred from neutralisation of IL-22-induced pSTAT3 on PDAC cells (immunoblot)
T4 construct: also called hIL-22BP; human IL-22BP
T4 sequence: T3 sequence

PKCY cells = experiment: Matrigel invasion assay, PDAC line; assay type: cell-based, murine; conditions: IL-22 incubation compared to control conditions (untreated and IL-6)
Method: (§2) To establish the role of IL-22 in pancreatic tumorigenesis in vitro, the murine PDAC line PKCY and PanIN lines 134, 5505 and 5552 were incubated in IL-22. Matrigel invasion assays were performed and number of infiltrating cells quantified. IL-22 incubation induced a 10-fold increase in invasion of PKCY cells compared to control conditions (untreated and IL-6) (FIG. 5 Panel A). […] Wild-type and IL-22 knockout mice were subcutaneously inoculated with equal quantities of PKCY cells. At 21 days, mice were sacrificed and tumor development, size and weight were determined.

PanIN cell lines = experiment: Matrigel invasion assay, PanIN lines; assay type: cell-based, murine; conditions: IL-22 incubation; two PanIN cell lines with little to no invasive capability at baseline
Method: as §2

[5] = test system: human and mouse PDAC cell lines; experiment: Immunoblotting for STAT3 and NF-κB activation after IL-22 incubation; assay type: cell-based; conditions: 100 ng/ml of IL-22 for 15 and 30 minutes
Excerpt: One of the principle signaling pathways activated by ligand binding at IL-22R1 is via JAK mediated phosphorylation of STAT3 (pSTAT3) (Refs. 7, 36, 37; incorporated by reference in its entirety). Because of constitutive association of STAT3 with the intracellular domain of the receptor, signaling is activated rapidly and efficiently upon IL-22 binding (ref 38; incorporated by reference in its entirety). A second, less described IL-22 signaling pathway is via NF-κB, which leads to transcription of genes associated with proliferation and prevention of apoptosis (ref. 6, 7; incorporated by reference in their entireties). To evaluate the ability of IL-22 to activate STAT3 and NF-κB in human and mouse PDAC, cell lines were incubated with 100 ng/ml of IL-22 for 15 and 30 minutes. […] To determine the presence of STAT3 activation in-vivo, IHC for pSTAT3 was performed on pancreata harvested from PKCY mice at 8 weeks (low-grade PanIN), 12 weeks (high-grade PanIN) and after ultrasound confirmation of PDAC. pSTAT3 staining was increased as lesions advanced from low grade PanIN to invasive cancer (FIG. 4B-D).

N.N.[Cl][Pt][Cl] [cisplatin, reference compound] was tested, and the “cell death by cisplatin (cleaved caspase 3)” value (PD2560; murine PDAC line PD2560, low and high doses) was “showed sensitivity”.

B1: murine IL-22BP: mouse interleukin-22 binding protein (SEQ ID NO: 2) (protein, listed as Mus musculus)
chain: MMPKHCLLGLLIILLSSATALEIQPARVSLTPQKVRFQSRNFHNILHWQAGSSLPSNNSIYFVQYKMYGQSQWEDKVDCWGTTALFCDLTNETLDPYELYYGRVMTACAGRHSAWTRTPRFTPWWETKLDPPVVTITRVNASLRVLLRPPELPNRNQSGKNASMETYYGLVYRVFTINNSLEKEQKAYEGTQRAVEIEGLIPHSSYCVVAEMYQPMFDRRSPRSKERCVQIP
B1 was tested, and the “neutralization of human IL-22 (pSTAT3 activation)” value (IL-22 [1]) was “little sequestration” and the “neutralization of murine IL-22 (pSTAT3 activation)” value (mouse IL-22) was “little sequestration”.

B2: IL-22BP-Alb: fusion protein which binds hIL-22BP to murine albumin (protein)
chain: T3 sequence
modifications: left off: large carriers
B2 was tested, and the “neutralization of human IL-22 (pSTAT3 activation)” value (IL-22 [1]) was “capable of binding and neutralizing”, the “neutralization of murine IL-22 (pSTAT3 activation)” value (mouse IL-22) was “capable of binding and neutralizing” and the “neutralization of IL-22 (sequestration and abrogation of STAT3 signaling)” value (IL-22 [2]) was “capable of neutralizing IL-22”.

B3: mouse IL-22 (ligand, UniProt Q9JJY9 34-179, looked up)
chain: T2 sequence (Q9JJY9 34-179)
notes: Used at a fixed 100 ng/ml; also called murine IL-22
B3: binds [3]; binds [4].

B4: Human IL-22BP: human interleukin-22 binding protein, soluble receptor capable of cytokine neutralization (SEQ ID NO: 1) (protein, listed as Homo sapiens)
chain: MMPKHCFLGFLISFFLTGVAGTQSTHESLKPQRVQFQSRNFHNILQWQPGRALTGNSSVYFVQYKIYGQRQWKNKEDCWGTQELSCDLTSETSDIQEPYYGRVRAASAGSYSEWSMTPRFTPWWETKIDPPVMNITQVNGSLLVILHAPNLPYRYQKEKNVSIEDYYELLYRVFIINNSLEKEQKVYEGAHRAVEIEALTPHSSYCVVAEIYQPMLDRRSQRSEERCVEIP
For B4, the “neutralization of human IL-22 (pSTAT3 activation)” value (IL-22 [1]) was “completely neutralizing”, the “neutralization of human IL-22 (pSTAT3 activation)” value (IL-22 [1]; listed as hIL-22BP) was “capable of binding and neutralizing” and the “neutralization of murine IL-22 (pSTAT3 activation)” value (mouse IL-22) was “completely neutralizing”. For the same molecule, the “neutralization of murine IL-22 (pSTAT3 activation)” value (mouse IL-22; listed as hIL-22BP) was “capable of binding and neutralizing”.

B5: human IL-22 (ligand, UniProt Q9GZX6 34-179, looked up)
chain: T1 sequence (Q9GZX6 34-179)
notes: Used at a fixed 100 ng/ml
B5: binds [3]; binds [4].

B6: IL-22: α-helical cytokine that binds the heterodimeric cell surface receptor IL-22R (protein, UniProt Q9GZX6 34-179, looked up)
Interleukin-22: T1 sequence (Q9GZX6 34-179)
For B6, the “increase in invasion of PKCY cells” value (PKCY cells) was 10 fold, the “invasion of PanIN cell lines” value (PanIN cell lines) was “induced invasion” and the pSTAT3 activation [5] was “robust pSTAT3 activation”. The pNF-κB ([5]; KPC and PKCY lines) was “modest increase” and the “effect of IL-22 pre-treatment on sensitivity to cisplatin” value (PD2560; PD2560 cultured in IL-22 for 4 days before cisplatin) was “diminished”.
